# Experimental data taken from patent publication US20050079613.
# B1: GST fusion of the MARCH-IV RING-CH domain (protein)
# chain: WYCYGLCAPAPQMLRHQGLLKCRCRMLFNDLKVFLLRRPPQAPLPMHGDPQPPGLAANNTLPALGAGGWAGWRGPREVVGREPPPVPPPPPLPPSSVEDDWGGPATEPPASLLSSASSDDFCKEKTEDRYSLGSSLDSGMRTPLCRICFQGPEQGELLSPCRCDGSVKCTHQPCLIKWISERGCWSCELCYYKYHVIAISTKNPLQWQAISLTVIEKVQ
# B2: GST fusion of the MARCH-I RING-CH domain (protein)
# chain: MTSSHVCCNFLNMWKKSKISTMYYLNQDAKLSNLFLQASSPTTGTAPRSQSRLSVCPSTQDICRICHCEGDEESPLITPCRCTGTLRFVHQSCLHQWIKSSDTRCCELCKYDFIMETKLKPLRKWEKLQMTTSERRK
# B3: GST-ICP0-RING (amino acids 1-241 of ICP0) (protein)
# chain: MEPRPGASTRRPEGRPQREPAPDVWVFPCDRDLPDSSDSEAETEVGGRGDADHHDDDSASEADSTDTELFETGLLGPQGVDGGAVSGGSPPREEDPGSCGGAPPREDGGSDEGDVCAVCTDEIAPHLRCDTFPCMHRFCIPCMKTWMQLRNTCPLCNAKLVYLIVGVTPSGSFSTIPIVNDPQTRMEAEEAVRAGTAVDFIWTGNQRFAPRYLTLGGHTVRALSPTHPEPTTDEDDDDLDD
# Assays:
# UbCH2, P62256 = target: T1, UbCH2, P62256
# T1 chain: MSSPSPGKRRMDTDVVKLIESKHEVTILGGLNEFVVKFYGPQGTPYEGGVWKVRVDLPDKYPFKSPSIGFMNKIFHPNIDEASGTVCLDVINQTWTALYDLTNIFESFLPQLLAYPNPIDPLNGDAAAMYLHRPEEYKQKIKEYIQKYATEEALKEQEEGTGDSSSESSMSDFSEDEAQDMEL
# [1] = target: three human E2 enzymes UbCH2, UbCH3 and UbCH5a (at least one of these three enzymes)
# GST-MmUbc6 = target: T2, GST-MmUbc6
# T2 sequence (Q9JJZ4 whole entry, looked up): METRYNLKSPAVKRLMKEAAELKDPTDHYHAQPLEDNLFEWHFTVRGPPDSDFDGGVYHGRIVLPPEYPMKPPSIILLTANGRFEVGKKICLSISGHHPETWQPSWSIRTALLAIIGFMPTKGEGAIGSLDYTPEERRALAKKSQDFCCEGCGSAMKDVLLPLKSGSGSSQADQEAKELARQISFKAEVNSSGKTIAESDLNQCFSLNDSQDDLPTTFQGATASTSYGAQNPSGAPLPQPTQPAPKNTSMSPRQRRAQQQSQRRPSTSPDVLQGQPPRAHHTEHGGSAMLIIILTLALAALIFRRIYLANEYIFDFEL
# GST-MmUbc7, P60605 = target: T3, GST-MmUbc7, P60605
# T3 chain: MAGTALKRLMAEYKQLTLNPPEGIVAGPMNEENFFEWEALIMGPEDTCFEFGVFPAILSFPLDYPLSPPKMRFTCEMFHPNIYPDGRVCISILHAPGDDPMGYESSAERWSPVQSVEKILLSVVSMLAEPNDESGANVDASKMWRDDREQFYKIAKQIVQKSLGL
# Sequence of GST-UbCH5a, P51668 (P51668 whole entry, the tested form may be a part): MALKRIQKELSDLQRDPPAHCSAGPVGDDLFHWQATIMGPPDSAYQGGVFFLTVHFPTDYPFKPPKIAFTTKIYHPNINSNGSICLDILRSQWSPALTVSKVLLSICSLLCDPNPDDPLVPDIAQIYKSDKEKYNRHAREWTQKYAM
Protein,"formation of high-molecular weight ubiquitin complexes in vitro (anti-ubiquitin blot) (UbCH2, P62256)",formation of high-molecular weight ubiquitin complexes in vitro (anti-ubiquitin blot) [1],formation of high-molecular weight ubiquitin complexes in vitro (anti-ubiquitin blot) (E2 enzymes tested),promotion of ubiquitination in vitro (GST-MmUbc6),"promotion of ubiquitination in vitro (GST-MmUbc7, P60605)","formation of high-molecular weight ubiquitin complexes in vitro (anti-ubiquitin blot) (GST-UbCH5a, P51668)",formation of high-molecular weight ubiquitin complexes in vitro (anti-ubiquitin blot) (GST-MmUbc6)
B1,MARCH-IV was mostly active with UbCH2,The RiNG-CH-GST fusion proteins of all four MARCH-proteins tested were able to catalyze the formation of high-molecular weight molecular ubiquitin complexes in the presence of at least one of these three enzymes,,,,,
B2,,The RiNG-CH-GST fusion proteins of all four MARCH-proteins tested were able to catalyze the formation of high-molecular weight molecular ubiquitin complexes in the presence of at least one of these three enzymes,MARCH-I was less active with most E2 enzymes tested with the notable exception of UbCH5a,MARCH-I was only active with MmUbc6,"Whereas MARCH-II was able to function with both proteins, MARCH-I was only active with MmUbc6",MARCH-I was less active with most E2 enzymes tested with the notable exception of UbCH5a,
B3,,,,,,ICPO promoted the formation of high-molecular weight complexes in the presence of the E2 enzyme ubCH5a,The ICP0-RING domain also showed some activity with the murine ER-bound E2 enzyme MmUbc6
